{
  "source": "paper doi:10.1101/2023.11.18.567679",
  "about": "(bioRxiv, 2023)",
  "binders": {"B1": {"name": "Tse15 N-terminal clade domain (residue 1-334) (domain or fragment, UniProt A0A5K6CSR3 1-334, looked up)", "chain": "MAKENTQQKEIKRQPAVELAVFNLNSVTDVADLQMIASQVQLYLQVCGNTTLEQIKSKANITTVANIFALTGSVLDLMLYATDKKTGDAAVQRGALLAANLIGLFSEPNNEAHARMALRPMFGLMAECLYRENGKIKETDIKRLGLHLNAMIAGDLENFLKETQAKLSSLLISATTLGVTILQSMATPATGINAGITTAAGASAEKRDPKLKFTNWAVPLIDLLGKPSQANLTPKIQPNITSRLQQEATQAIAALSQTLQQQANAGQKYTLAWLLQETLKAIQALENKGNASVPINQTGEYERHTKGDTLEFVSLQADALNAPPCEGADSQSGK"}},
  "key": {"[1]": {"target": "T1, Tse15 central Rhs domain (residues 335-1395) (Acinetobacter baumannii (strain …, UniProt A0A5K6CSR3 335-1395))", "T1 sequence (looked up)": "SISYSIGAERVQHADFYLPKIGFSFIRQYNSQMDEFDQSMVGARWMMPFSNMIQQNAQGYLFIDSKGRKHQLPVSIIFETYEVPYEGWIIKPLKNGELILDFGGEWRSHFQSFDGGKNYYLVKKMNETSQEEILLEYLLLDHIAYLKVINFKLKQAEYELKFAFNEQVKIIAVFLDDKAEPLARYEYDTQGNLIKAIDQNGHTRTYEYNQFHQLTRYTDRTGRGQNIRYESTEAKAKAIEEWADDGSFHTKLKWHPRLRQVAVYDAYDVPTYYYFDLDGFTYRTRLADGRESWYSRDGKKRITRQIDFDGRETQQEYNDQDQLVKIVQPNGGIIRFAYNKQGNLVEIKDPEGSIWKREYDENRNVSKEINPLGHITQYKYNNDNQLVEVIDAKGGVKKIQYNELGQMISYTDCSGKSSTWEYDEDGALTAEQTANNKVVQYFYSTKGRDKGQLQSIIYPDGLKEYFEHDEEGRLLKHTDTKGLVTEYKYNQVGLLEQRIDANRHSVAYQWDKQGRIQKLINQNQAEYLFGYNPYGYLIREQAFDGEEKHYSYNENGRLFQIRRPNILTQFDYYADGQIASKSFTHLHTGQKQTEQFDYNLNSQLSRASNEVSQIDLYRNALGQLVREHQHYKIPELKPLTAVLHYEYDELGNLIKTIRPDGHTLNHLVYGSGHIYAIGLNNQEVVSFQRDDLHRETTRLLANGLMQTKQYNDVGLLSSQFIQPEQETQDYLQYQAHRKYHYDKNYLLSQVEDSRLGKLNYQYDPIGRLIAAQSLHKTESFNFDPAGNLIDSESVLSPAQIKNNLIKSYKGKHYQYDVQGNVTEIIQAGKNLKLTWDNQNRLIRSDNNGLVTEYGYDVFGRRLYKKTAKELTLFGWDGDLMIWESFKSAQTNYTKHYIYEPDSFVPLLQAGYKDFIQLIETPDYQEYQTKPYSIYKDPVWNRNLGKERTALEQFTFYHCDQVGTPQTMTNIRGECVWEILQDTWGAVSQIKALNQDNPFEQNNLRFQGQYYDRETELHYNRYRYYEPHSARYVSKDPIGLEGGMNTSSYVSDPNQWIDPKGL", "assay": "SEC"}, "[2]": {"target": "B1", "assay": "pull-down"}, "[3]": {"target": "T1, Tse15 central Rhs domain (residues …)", "assay": "pull-down"}},
  "data": [
    {"binder": "B1", "values": [
      {"measurement": "binding result", "setting": "[1]", "result": "binds"}
    ]},
    {"binder": "Tse15 toxic C-terminal domain (residues 1396-1590) (domain or fragment, UniProt A0A5K6CSR3 1396-1590, looked up) NSFNYGEMFGIPASAQSGLAYQGQRNYECYAETGELCKIKVPPLFDYVACSGGGLGIGVGFVKNQWTGEYYISGSKDSLLIPVAKSVAQNKQFSAKDLAGASCVGGNIHNIPSYTKTTMTMGEITNEFVSGASVTVGGGAYGAVANVVVPLVSKSSPVKGTWASELGVGTPGFNVGVSGTVSVDTILDAVKPSKK", "values": [
      {"measurement": "binding result", "setting": "[2]", "result": "binds"},
      {"measurement": "binding result", "setting": "[3]", "result": "binds"}
    ]}
  ]
}
